Substitutions are numbered along the chain they refer to.
B1: Abet0380: optimized anti-Aβ1-42 clone derived from Abet0144-GL, non-germlined (protein)
scFv (part 1 of 2): EVQLLESGGGLVQPGGSLRLSCAASMGNFNYQTMWWVRQAPGRGLEWVSVIGKTNENIAYADSVKGRFTISRDNSKNTLYLQMNSLRAEDTAVYYCAREWMDHSRPYYYYGMDVWGQGTLVTVSS
scFv (part 2 of 2): SYELTQPPSVSVSPGQTASITCSGHNLEDKFASWYQQKPGQSPVLVIYRDDKRPSGIPERFSASNSGHTATLTISGTQATDEADYYCSSQDTVTRVFGGGTKLTVL
modifications: left off: small tags and cut ends
notes: optimized anti-Aβ1-42 clone derived from Abet0144-GL, non-germlined
B2: Abet0377: optimized anti-Aβ1-42 clone from quaternary library (protein)
scFv (part 1 of 2): B1 scFv (part 1 of 2) with M26G, G27F, Y31E, M34L, R43K, K53V, T54G, N55T, E56K, S63T
scFv (part 2 of 2): B1 scFv (part 2 of 2) with L27T, D29H, F31W, A32I, S64T
modifications: left off: small tags and cut ends
notes: optimized anti-Aβ1-42 clone from quaternary library
B3: Abet0369: optimized anti-Aβ1-42 clone derived from Abet0144-GL (protein)
scFv (part 1 of 2): EVQLLESGGGLVQPGGSLRLSCAASSFQISKNTMWWVRRAPGKGLEWVSVIGKDETRFNYADSVKGRFTISRDNSKNTLYLQMNSLRAEDTAVYYCAREWMDHSRPYYYYGMDVWGQGTLVTVSS
scFv (part 2 of 2): B1 scFv (part 2 of 2) with E3G, H25R, L27I, E28G, K30S, F31W, A32V, S33A
modifications: left off: small tags and cut ends
notes: optimized anti-Aβ1-42 clone derived from Abet0144-GL
B4: Abet0321b: optimized anti-Aβ1-42 clone derived from Abet0144-GL (protein)
scFv (part 1 of 2): EVQLLESGGGLVQPGGSLRLSCAASAYHSNHDPMWWVRQAPGKGLEWVSVIGSSGGTTAYADSVKGRFTISRDNSKNTLYLQMNSLRAEDTAVYYCAREWMDHSRPYYYYGMDVWGQGTLVTVSS
scFv (part 2 of 2): B1 scFv (part 2 of 2) with V46I
modifications: left off: small tags and cut ends
notes: as for B3
B5: Abet0383: optimized anti-Aβ1-42 clone derived from Abet0144-GL (protein)
scFv (part 1 of 2): EVQLLESGGGLVQPGGSLKLSCAASGFTFDWYPMWWVRQAPGKRLEWISVIGADNAKIAYADSVKGRFTISRDNSKNTLYLQMNSLRAEDTAVYYCAREWMGHSRPYYYYGMDVWGQGTPVTVSS
scFv (part 2 of 2): B1 scFv (part 2 of 2) with E28G
modifications: left off: small tags and cut ends
notes: as for B3
B6: Abet0381: optimized anti-Aβ1-42 clone derived from Abet0144-GL (protein)
scFv (part 1 of 2): EVQLLESGGGLVQPGGSLRLSCAASSPSFPRETMWWVRQAPGKGLEWVSVIGTQPNRLTYADSVKGRFTISRDNSKNTLYLQMNSLRAEDTAVYYCAREWMDHSRPYYYYGIDVWGQGTLVTVSP
scFv (part 2 of 2): B1 scFv (part 2 of 2) with V12A, A32V, D84N, V96A
modifications: left off: small tags and cut ends
notes: as for B3
B7: Abet0379: optimized anti-Aβ1-42 clone derived from Abet0144-GL (protein)
scFv (part 1 of 2): EVQLLESGGGLVQPGGSLRLSCAASGFDFAETPLWWVRQAPGERLEWVSVIGSNQNKTAYADSVKGRFTISRDNSKDTLYLQMNSLRAEDTAVYYCAREWMDHSRPYYYYGMDVWGQGTLVTVSS
scFv (part 2 of 2): B1 scFv (part 2 of 2) with S1Q, Y2S, E3V, P39S, E82G, S88A, S89T, T92N, V93F
modifications: left off: small tags and cut ends
notes: as for B3
B8: Abet0378: optimized anti-Aβ1-42 clone; amber stop codon at VL position 91 read as glutamine (protein)
scFv (part 1 of 2): EVQLLESGGGLVQPGGSLRLSCAASGFPFETDIMWWVRQAPGKGLEWVSVIGTNTDNVAYADSVKGRFTISRDNSKNTLYLQMNSLRAEDTAVYYCAREWMDHSRPYYYYGMDVWGQGTLVTVSS
scFv (part 2 of 2): B1 scFv (part 2 of 2)
modifications: left off: small tags and cut ends
notes: optimized anti-Aβ1-42 clone; amber stop codon at VL position 91 read as glutamine
B9: Abet0319: optimized anti-Aβ1-42 clone derived from Abet0144-GL (protein)
scFv (part 1 of 2): B4 scFv (part 1 of 2) with A26V, Y27S, H28V, S29Y, H31K, P33T, A59V
scFv (part 2 of 2): B1 scFv (part 2 of 2) with L27I, E28M, F31W, A32V, Q41R, V44A
modifications: left off: small tags and cut ends
notes: as for B3

target: T1, human Amyloid beta 1-42 peptide (Homo sapiens, UniProt P05067); test: Abet0144-GL HTRF epitope competition assay; format: binding; details: purified competitor scFv; inhibition of human Amyloid beta 1-42 : Abet0144-GL IgG1-TM complex
T1 construct: biotinylated human Amyloid beta 1-42 peptide (rpeptide, USA; cat: A1117); purchased rPeptide, USA A1117; host or cells: synthetic peptide
T1 sequence (P05067 672-713): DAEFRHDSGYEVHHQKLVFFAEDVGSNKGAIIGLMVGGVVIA
Experimental: Two thousand and twenty four scFv chosen at random from selection rounds 3 and 4 of the targeted mutagenesis approach described in section 1.2 were expressed in bacteria to produce unpurified periplasmic scFv. Those scFv capable of binding synthetic human amyloid beta 1-42 peptide via the same epitope as Abet0144-GL IgG1-TM were elucidated in a competition format assay, using the HTRF™ platform. Specifically, fluorescence resonance energy transfer (FRET) was measured between streptavidin cryptate (associated with biotinylated amyloid beta 1-42 peptide) and anti-human Fc XL665 (associated with Abet0144-GL IgG1-TM) in the presence of a single concentration of each unpurified periplasmic test scFv.
A ‘Total’ binding signal was determined by analysing the binding of Abet0144-GL IgG1-TM to synthetic human Amyloid beta 1-42 peptide in the absence of competitor peptide. The ‘Sample’ signals were derived from analysing the binding of Abet0144-GL IgG1-TM to synthetic human Amyloid beta 1-42 peptide in the presence of a test scFv sample. Finally, a ‘Cryptate Blank’ signal was determined by analysing the fluorescence mediated by the detection reagent cocktail alone.
Unpurified periplasmic scFv were supplied in sample buffer consisting of 50 mM MOPS, pH 7.4, 0.5 mM EDTA, and 0.5 M sucrose. […] Assay plates were sealed and then incubated for 3 hours at room temperature in the dark, prior to measuring time-resolved fluorescence at 620 and 665 nm emission wavelengths on a fluorescence plate reader.
Data were analysed by calculating % Delta F values for each sample. % Delta F was determined according to equation 1. […]
Data were again analysed by calculating the % Delta F and % Total binding values for each sample. In addition, a % Inhibition value for each concentration of purified scFv was also calculated as described in Equation 3: […]

In the case of B1, the “potency over the parent Abet0144-GL scFv sequence (FIG. 1)” value is reported as “significant improvement in potency”.
With B2 the “potency over the parent Abet0144-GL scFv sequence (FIG. 1)” value was “significant improvement in potency”.
For B3, the “potency over the parent Abet0144-GL scFv sequence (FIG. 1)” value was “significant improvement in potency”.

target: T1, human Amyloid beta 1-42 peptide; test: Surface Plasmon Resonance kinetic profiling of purified scFv (ProteOn); format: binding; details: biotinylated human Amyloid beta 1-42 on streptavidin chip
From the text: Surface Plasmon Resonance was used to analyse the purified scFv clones that had shown significant improvement in binding affinity for human Amyloid beta 1-42 peptide over the parent sequence, Abet0144-GL, in the HTRF™ epitope competition assay (sections 1.3-1.6). Briefly, the ProteOn Protein Interaction Array System (BioRad, USA) was used to assess the kinetic parameters of the interaction between each purified scFv and synthetically produced human Amyloid beta 1-42 peptide. These experiments were performed essentially as described by Karlsson et al. (Karlsson et al., 1991).
The affinity of binding between each test scFv and human Amyloid beta 1-42 was estimated using assays in which biotinylated synthetic human Amyloid beta 1-42 peptide (rPeptide, USA; cat: Al 117) was non-covalently bound via a biotin/streptavidin interaction to a proprietary streptavidin chip (NTA 176-5021) at five different surface densities. The chip surface was regenerated between cycles by a single 60 second injection of 10 mM Glycine pH 2.0 to remove scFv bound to the peptide.
Each scFv at 100-200 nM was sequentially passed over the peptide surface for a sufficient amount of time to observe sensorgrams that could be fitted to an appropriate binding model with confidence. An irrelevant scFv blank was subtracted from the main dataset to reduce the impact of any buffer artefacts or non-specific binding effects. An appropriate binding model was then fitted to the data.

B1 and B4 are within 1.5-fold of each other in “ka” value: 193000 M⁻¹ s⁻¹ for the first, 150000 M⁻¹ s⁻¹ for the second.

B2 and B5 are within 1.5-fold of each other in “ka” value: 196000 M⁻¹ s⁻¹ for the first, 181000 M⁻¹ s⁻¹ for the second.

First: B6
Second: B3
The “ka” value of the first is 1.5-fold lower: 213000 M⁻¹ s⁻¹ for the first, 327000 M⁻¹ s⁻¹ for the second.

B7 and B8 are within 1.5-fold of each other in “ka” value: 134000 M⁻¹ s⁻¹ for the first, 136000 M⁻¹ s⁻¹ for the second.

B9 was tested, and the “ka” value was 329000 M⁻¹ s⁻¹.

B1 and B4 are within 1.5-fold of each other in “kd” value: 2.85e-05 s⁻¹ for the first, 3.33e-05 s⁻¹ for the second.

B2 and B5 are within 1.5-fold of each other in “kd” value: 3.02e-05 s⁻¹ for the first, 3.94e-05 s⁻¹ for the second.

B6 and B3 are within 1.5-fold of each other in “kd” value: 5.14e-05 s⁻¹ for the first, 4.34e-05 s⁻¹ for the second.

B7 and B8 are within 1.5-fold of each other in “kd” value: 4.39e-05 s⁻¹ for the first, 6.41e-05 s⁻¹ for the second.

With B9 the “kd” value was 0.000129 s⁻¹.

same assay, conditions: biotinylated human Amyloid beta 1-42 on streptavidin chip, listed as Abet0380 scFv

For B1, the “ka” value was 193000 M⁻¹ s⁻¹.

For B1, the “kd” value was 2.85e-05 s⁻¹.

Source: patent publication US20190262327A1, “COMBINATION OF A BACE INHIBITOR AND AN ANTIBODY OR ANTIGEN-BINDING FRAGMENT FOR THE TREATMENT OF A DISORDER ASSOCIATED WITH THE ACCUMULATION OF AMYLOID BETA” (ASTRAZENECA AB, priority 2016, published 2019)
